Test results: US20240118272A1

Columns and labels:
[1] = target: CD63(ECD)-ALP conjugate (human; bovine); test: HI-1000 capture immunoassay; calibrator C1, 1.43 mU/L; run 3
[2] = target: CD63(ECD)-ALP conjugate (human; bovine); test: HI-1000 capture immunoassay; calibrator C5, 1563 ng/mL; mean of 3
[3] = target: CD63(ECD)-ALP conjugate (human; bovine); test: HI-1000 capture immunoassay; calibrator C5, 365.43 mU/L; run 2
[4] = target: CD63(ECD)-ALP conjugate (human; bovine); test: HI-1000 capture immunoassay; calibrator C5, 1563 ng/mL; run 3
[5] = target: CD63(ECD)-ALP conjugate (human; bovine); test: HI-1000 capture immunoassay; calibrator C2, 12.5 ng/mL; run 1
[6] = target: CD63(ECD)-ALP conjugate (human; bovine); test: HI-1000 capture immunoassay; calibrator C2, 12.5 ng/mL; mean of 3
[7] = target: CD63(ECD)-ALP conjugate (human; bovine); test: HI-1000 capture immunoassay; calibrator C1, 2.5 ng/mL; run 3
[8] = target: CD63(ECD)-ALP conjugate (human; bovine); test: HI-1000 capture immunoassay; calibrator C3, 22.84 mU/L; run 1
[9] = target: CD63(ECD)-ALP conjugate (human; bovine); test: HI-1000 capture immunoassay; calibrator C4, 313 ng/mL; mean of 3
[10] = target: CD63(ECD)-ALP conjugate (human; bovine); test: HI-1000 capture immunoassay; calibrator C3, 22.84 mU/L; run 3
[11] = target: CD63(ECD)-ALP conjugate (human; bovine); test: HI-1000 capture immunoassay; calibrator C1, 2.5 ng/mL; mean of 3
[12] = target: CD63(ECD)-ALP conjugate (human; bovine); test: HI-1000 capture immunoassay; calibrator C5, 365.43 mU/L; run 3
[13] = target: CD63(ECD)-ALP conjugate (human; bovine); test: HI-1000 capture immunoassay; calibrator C3, 62.5 ng/mL; run 2
[14] = target: CD63(ECD)-ALP conjugate (human; bovine); test: HI-1000 capture immunoassay; calibrator C3, 62.5 ng/mL; run 3
[15] = target: CD63(ECD)-ALP conjugate (human; bovine); test: HI-1000 capture immunoassay; calibrator C3, 22.84 mU/L; mean of 3
[16] = target: CD63(ECD)-ALP conjugate (human; bovine); test: HI-1000 capture immunoassay; calibrator C2, 12.5 ng/mL; run 3
[17] = target: CD63(ECD)-ALP conjugate (human; bovine); test: HI-1000 capture immunoassay; calibrator C2, 12.5 ng/mL; run 2
[18] = target: CD63(ECD)-ALP conjugate (human; bovine); test: HI-1000 capture immunoassay; calibrator C5, 1563 ng/mL; run 1
[19] = target: CD63(ECD)-ALP conjugate (human; bovine); test: HI-1000 capture immunoassay; calibrator C5, 1563 ng/mL; run 2
[20] = target: CD63(ECD)-ALP conjugate (human; bovine); test: HI-1000 capture immunoassay; calibrator C2, 5.71 mU/L; run 2
[21] = target: CD63(ECD)-ALP conjugate (human; bovine); test: HI-1000 capture immunoassay; calibrator C2, 5.71 mU/L; run 1
[22] = target: CD63(ECD)-ALP conjugate (human; bovine); test: HI-1000 capture immunoassay; calibrator C5, 365.43 mU/L; mean of 3
[23] = target: CD63(ECD)-ALP conjugate (human; bovine); test: HI-1000 capture immunoassay; calibrator C1, 2.5 ng/mL; run 1
[24] = target: CD63(ECD)-ALP conjugate (human; bovine); test: HI-1000 capture immunoassay; calibrator C5, 365.43 mU/L; run 1
[25] = target: CD63(ECD)-ALP conjugate (human; bovine); test: HI-1000 capture immunoassay; calibrator C2, 5.71 mU/L; mean of 3
[26] = target: CD63(ECD)-ALP conjugate (human; bovine); test: HI-1000 capture immunoassay; calibrator C4, 91.36 mU/L; run 2
[27] = target: CD63(ECD)-ALP conjugate (human; bovine); test: HI-1000 capture immunoassay; calibrator C1, 2.5 ng/mL; run 2
[28] = target: CD63(ECD)-ALP conjugate (human; bovine); test: HI-1000 capture immunoassay; calibrator C4, 91.36 mU/L; run 1
[29] = target: CD63(ECD)-ALP conjugate (human; bovine); test: HI-1000 capture immunoassay; calibrator C1, 1.43 mU/L; run 1
[30] = target: CD63(ECD)-ALP conjugate (human; bovine); test: HI-1000 capture immunoassay; calibrator C4, 91.36 mU/L; run 3
[31] = target: CD63(ECD)-ALP conjugate (human; bovine); test: HI-1000 capture immunoassay; calibrator C1, 1.43 mU/L; run 2
[32] = target: CD63(ECD)-ALP conjugate (human; bovine); test: HI-1000 capture immunoassay; calibrator C4, 313 ng/mL; run 3
[33] = target: CD63(ECD)-ALP conjugate (human; bovine); test: HI-1000 capture immunoassay; calibrator C3, 22.84 mU/L; run 2
[34] = target: CD63(ECD)-ALP conjugate (human; bovine); test: HI-1000 capture immunoassay; calibrator C4, 313 ng/mL; run 1
[35] = target: CD63(ECD)-ALP conjugate (human; bovine); test: HI-1000 capture immunoassay; calibrator C4, 313 ng/mL; run 2
[36] = target: CD63(ECD)-ALP conjugate (human; bovine); test: HI-1000 capture immunoassay; calibrator C3, 62.5 ng/mL; run 1
[37] = target: CD63(ECD)-ALP conjugate (human; bovine); test: HI-1000 capture immunoassay; calibrator C4, 91.36 mU/L; mean of 3
[38] = target: CD63(ECD)-ALP conjugate (human; bovine); test: HI-1000 capture immunoassay; calibrator C2, 5.71 mU/L; run 3
[39] = target: CD63(ECD)-ALP conjugate (human; bovine); test: HI-1000 capture immunoassay; calibrator C1, 1.43 mU/L; mean of 3
[40] = target: CD63(ECD)-ALP conjugate (human; bovine); test: HI-1000 capture immunoassay; calibrator C3, 62.5 ng/mL; mean of 3

CD63(ECD)-ALP conjugate (human; bovine), sequence (chain, as listed by the source, chain 1 of 2): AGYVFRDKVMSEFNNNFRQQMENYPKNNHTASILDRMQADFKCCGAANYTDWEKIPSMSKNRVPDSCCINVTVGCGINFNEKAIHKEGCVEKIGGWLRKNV
CD63(ECD)-ALP conjugate (human; bovine), sequence (P19111 20-506, chain 2 of 2): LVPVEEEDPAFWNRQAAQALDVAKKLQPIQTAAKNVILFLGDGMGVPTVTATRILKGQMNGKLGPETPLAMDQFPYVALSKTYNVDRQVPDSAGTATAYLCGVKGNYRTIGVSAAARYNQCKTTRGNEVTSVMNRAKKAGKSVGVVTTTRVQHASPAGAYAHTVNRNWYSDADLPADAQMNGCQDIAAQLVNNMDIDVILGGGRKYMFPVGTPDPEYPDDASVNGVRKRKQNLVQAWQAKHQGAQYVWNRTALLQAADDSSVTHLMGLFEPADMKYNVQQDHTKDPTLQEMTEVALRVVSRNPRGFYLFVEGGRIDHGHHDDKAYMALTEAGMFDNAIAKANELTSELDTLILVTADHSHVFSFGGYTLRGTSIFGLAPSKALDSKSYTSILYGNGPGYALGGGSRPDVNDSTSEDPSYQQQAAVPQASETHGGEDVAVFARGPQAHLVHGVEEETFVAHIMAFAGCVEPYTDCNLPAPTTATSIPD

Count value [1]: 916 count | Count (av) [2]: 212000 count | Count value [3]: 212000 count | Count [4]: 213000 count | Count [5]: 2160 count | Count (av) [6]: 2180 count | Count [7]: 743 count | Count value [8]: 9140 count | Count (av) [9]: 41900 count | Count value [10]: 9080 count | Count (av) [11]: 755 count | Count value [12]: 207000 count | Count [13]: 9250 count | Count [14]: 8490 count | Count value (av) [15]: 9160 count | Count [16]: 2260 count | Count [17]: 2120 count | Count [18]: 218000 count | Count [19]: 205000 count | Count value [20]: 2380 count | Count value [21]: 2260 count | Count value (av) [22]: 208000 count | Count [23]: 770 count | Count value [24]: 206000 count | Count value (av) [25]: 2290 count | Count value [26]: 42200 count | Count [27]: 751 count | Count value [28]: 43000 count | Count value [29]: 900 count | Count value [30]: 42700 count | Count value [31]: 871 count | Count [32]: 42800 count | Count value [33]: 9240 count | Count [34]: 41700 count | Count [35]: 41300 count | Count [36]: 8690 count | Count value (av) [37]: 42600 count | Count value [38]: 2240 count | Count value (av) [39]: 896 count | Count (av) [40]: 8810 count
Substance: anti-CD63 antibody (Clone: H5C6)
